Experiments:
stz-treated mice = conditions: systemic BMP-7; cited from earlier work
ALK3- fraction of hNEPT = assay: BMP-7 response of ALK3- fraction; format: cell-based, human; conditions: qRT-PCR
Description: Magnetic bead-based methods (Miltenyi) were used for the enrichment of ALK3+ cells from hNEPT. Both enriched and negative fractions are subsequently plated and treated with BMP-7 or left untreated (controls).
The identity of sorted cells is confirmed by IF, and aliquots are cultured in adherent conditions. Single sorted pancreatic cells are notoriously difficult to culture in plastic, which is addressed by using a combination of Matrigel®-coated plates and fully defined media [STEMPRO® (Thermofisher Scientific, Grand Island, N.Y.) or Kubota's Medium® (PhoenixSongs Biologicals Branford, Conn.)]^8,29,48,49 Matrigel® is used to grow multipotent pancreatic cells^50,51. Colonies from dissociated ALK3^+ cells sorted from fresh hNEPT are readily grown in these conditions, and resemble those obtained from the MPD without sorting. The typical “ring” morphology described by others^50,51 is observed when plating ALK3^+ cells in 3D conditions or fibroblast feeder cells.

B1: BMP-7: 35 kDa homodimeric protein of the TGF-β superfamily; FDA-approved agent; human mature chain SEQ ID NO:1/2 (protein, listed as Homo sapiens)
chain: IRSTGSKQRSQNRSKTPKNQEALRMANVAENSSSDQRQACKKHELYVSFRDLGWQDWIIAPEGYAAYYCEGECAFPLNSYMNATNHAIVQTLVHFINPETVPKPCCAPTQLNAISVLYFDDSSNVILKKYRNMVVRACGCH
modifications: homodimer; human mature chain of BMP-7 (NCBI Reference Sequence NM_001719.2) comprising peptide from 293-431
effect on hyperglycemia of stz-treated mice (stz-treated mice): corrected the hyperglycemia | response to BMP-7 (ALK3- fraction of hNEPT): did not show any response

Source: patent US11466255B2, “Methods and compositions for converting non-endocrine pancreatic tissue into insulin-producing cells” (UNIVERSITY OF MIAMI, priority 2015, dated 2022)
